According to the supplement of paper PMC7125110:
± gives the standard error. Variants at the floor of the assay were thinned out.

B1: glmS ribozyme (parent)
chain: AUAAAAGCGCCAGAACUACAGAAAUGUAGUUGACGAGGAGGAGGUUUAUCGAAUUUUCGGCGGAUGCCUCCAAA

Assays:
Conditions in all cases: with glucosamine-6-phosphate
glucosamine-6-phosphate [1] = variants of: B1; test: self-cleavage kobs at 160 uM GlcN6P; higher = faster cleavage; RNA array
Outline: (§1)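 Sequenced MiSeq chips were the platform: E. coli RNA polymerase transcribed barcoded ribozyme variants on them in situ, and a hybridised Cy3 probe tracked these at 37 °C. After glucosamine-6-phosphate (40 μM to 10 mM) in HEPES/KCl/Mg(OAc)2 buffer was flowed in, tiles were imaged over ~14 h. Signals normalised to baseline and to non-cleaving reference variants were reduced to per-tile medians and fit to one- or two-exponential decays to obtain kobs. kcat and KM were derived through weighted Michaelis–Menten fits across concentrations.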

glucosamine-6-phosphate [2] = variants of: B1; test: self-cleavage kobs at 640 uM GlcN6P; higher = faster cleavage; RNA array
Outline: as §1

glucosamine-6-phosphate [3] = variants of: B1; test: self-cleavage kobs at 10000 uM GlcN6P; higher = faster cleavage; RNA array
Outline: as §1

glucosamine-6-phosphate [4] = variants of: B1; test: self-cleavage kobs at 2500 uM GlcN6P; higher = faster cleavage; RNA array
Outline: as §1

Row | Variant | self-cleavage kobs at 160 uM GlcN6P (glucosamine-6-phosphate [1]) | self-cleavage kobs at 640 uM GlcN6P (glucosamine-6-phosphate [2]) | self-cleavage kobs at 10000 uM GlcN6P (glucosamine-6-phosphate [3]) | self-cleavage kobs at 2500 uM GlcN6P (glucosamine-6-phosphate [4])
1 | G38U A42U U56G | < 1e-05 s⁻¹ | < 1e-05 s⁻¹ | < 1e-05 s⁻¹ | 
2 | C10U G51U | < 1e-05 s⁻¹ | < 1e-05 s⁻¹ | < 1e-05 s⁻¹ | < 1e-05 s⁻¹
3 | A42C U54C A64G C68A | < 1e-05 s⁻¹ | < 1e-05 s⁻¹ | < 1e-05 s⁻¹ | < 1e-05 s⁻¹
4 | G38A G41U U56G | < 1e-05 s⁻¹ | < 1e-05 s⁻¹ |  | < 1e-05 s⁻¹
5 | G7A U30C C61A C67U | < 1e-05 s⁻¹ |  |  | 
6 | G66U C68U C70U | 7.05e-05 ± 2.3e-05 s⁻¹ |  |  | 0.000104 ± 2.7e-05 s⁻¹
7 | U45A C67G C68A | 7.91e-05 ± 1.9e-05 s⁻¹ | 0.000177 ± 4.1e-05 s⁻¹ |  | 0.000173 ± 4.7e-05 s⁻¹
8 | C10G A48C G51U U65C | < 1e-05 s⁻¹ | < 1e-05 s⁻¹ |  | < 1e-05 s⁻¹
9 | C11G A12U G13U C58U C68G | 7.71e-05 ± 2.9e-05 s⁻¹ | 0.000363 ± 0.00016 s⁻¹ |  | 
10 | A12U A42U G44U C67G | 3.69e-05 ± 1.5e-05 s⁻¹ | 0.000122 ± 3.2e-05 s⁻¹ |  | 0.000326 ± 9.4e-05 s⁻¹
11 | C10U G62C | < 1e-05 s⁻¹ |  | < 1e-05 s⁻¹ | < 1e-05 s⁻¹
12 | A48G C50A C61G C67A C68U | 8.22e-05 ± 2.2e-05 s⁻¹ | 8.1e-05 ± 3.2e-05 s⁻¹ |  | 9.85e-05 ± 2.5e-05 s⁻¹
13 | G13A A33G A36U G40U U55A | < 1e-05 s⁻¹ | < 1e-05 s⁻¹ |  | < 1e-05 s⁻¹
14 | U49A U56C A64U | < 1e-05 s⁻¹ | < 1e-05 s⁻¹ |  | < 1e-05 s⁻¹
15 | U57G C68U C71U | 4.43e-05 ± 1.8e-05 s⁻¹ |  |  | 5.05e-05 ± 2.4e-05 s⁻¹
16 | A15C A33C U55C | < 1e-05 s⁻¹ | < 1e-05 s⁻¹ |  | < 1e-05 s⁻¹
17 | G35A C68U C70G | < 1e-05 s⁻¹ | < 1e-05 s⁻¹ |  | < 1e-05 s⁻¹
18 | G7C C58A | < 1e-05 s⁻¹ | < 1e-05 s⁻¹ | < 1e-05 s⁻¹ | < 1e-05 s⁻¹
19 | C50G A53U C68G | 0.000236 ± 6.7e-05 s⁻¹ | 0.000668 ± 0.00018 s⁻¹ |  | 
20 | C11G G32A G59C | < 1e-05 s⁻¹ | < 1e-05 s⁻¹ |  | 
21 | G7U G13U A14U A48G U54A | < 1e-05 s⁻¹ | < 1e-05 s⁻¹ |  | < 1e-05 s⁻¹
22 | G7U U46A C50G G60A U65G U69A | 0.000502 ± 0.00021 s⁻¹ |  |  | 
23 | A6C C10A | < 1e-05 s⁻¹ | < 1e-05 s⁻¹ | < 1e-05 s⁻¹ | < 1e-05 s⁻¹

Row | Variant | self-cleavage kobs at 160 uM GlcN6P (glucosamine-6-phosphate [1]) | self-cleavage kobs at 640 uM GlcN6P (glucosamine-6-phosphate [2]) | self-cleavage kobs at 10000 uM GlcN6P (glucosamine-6-phosphate [3]) | self-cleavage kobs at 2500 uM GlcN6P (glucosamine-6-phosphate [4])
24 | G7C C8G | < 1e-05 s⁻¹ | < 1e-05 s⁻¹ | < 1e-05 s⁻¹ | < 1e-05 s⁻¹
25 | A14U A39C A52C | < 1e-05 s⁻¹ | < 1e-05 s⁻¹ |  | 
26 | A12C C34U | < 1e-05 s⁻¹ |  | < 1e-05 s⁻¹ | < 1e-05 s⁻¹
27 | A33G G40C G63U | < 1e-05 s⁻¹ | < 1e-05 s⁻¹ |  | < 1e-05 s⁻¹
28 | G13U G38U U65G | < 1e-05 s⁻¹ |  |  | 
29 | G29A U65A C70U | 7.19e-05 ± 3e-05 s⁻¹ | 8.13e-05 ± 1.7e-05 s⁻¹ |  | 0.000148 ± 3.6e-05 s⁻¹
30 | G7A U57A | < 1e-05 s⁻¹ | < 1e-05 s⁻¹ | < 1e-05 s⁻¹ | < 1e-05 s⁻¹
31 | G35A A39C | < 1e-05 s⁻¹ | < 1e-05 s⁻¹ | < 1e-05 s⁻¹ | < 1e-05 s⁻¹
32 | A12C U49A C50A | < 1e-05 s⁻¹ |  |  | < 1e-05 s⁻¹
33 | G9U G13U G32A U47A G62A | < 1e-05 s⁻¹ |  |  | 
34 | G9A G41A | < 1e-05 s⁻¹ | < 1e-05 s⁻¹ | < 1e-05 s⁻¹ | < 1e-05 s⁻¹
35 | U31C G40A A53U | 9.65e-05 ± 3.1e-05 s⁻¹ | 7.74e-05 ± 1.7e-05 s⁻¹ |  | 
36 | G32U G44U U47G A64C | < 1e-05 s⁻¹ |  |  | < 1e-05 s⁻¹
37 | A12C G63C G66C | < 1e-05 s⁻¹ | < 1e-05 s⁻¹ |  | 
38 | A36C U54C | < 1e-05 s⁻¹ |  | < 1e-05 s⁻¹ | 
39 | A36U U56C | < 1e-05 s⁻¹ | < 1e-05 s⁻¹ | < 1e-05 s⁻¹ | 
40 | A15C C58U C61A | 0.0001 ± 4.6e-05 s⁻¹ | 6.79e-05 ± 2.5e-05 s⁻¹ |  | 
41 | A6C G37C U65A | < 1e-05 s⁻¹ | < 1e-05 s⁻¹ |  | < 1e-05 s⁻¹
42 | U46G U57G | < 1e-05 s⁻¹ | < 1e-05 s⁻¹ |  | 
43 | A14G A15G U55G A64G | 0.00524 ± 0.0017 s⁻¹ | 0.00775 ± 0.002 s⁻¹ |  | 
44 | A36G U57G | < 1e-05 s⁻¹ | < 1e-05 s⁻¹ | < 1e-05 s⁻¹ | < 1e-05 s⁻¹
45 | C10U A36G U46C | < 1e-05 s⁻¹ |  | < 1e-05 s⁻¹ | < 1e-05 s⁻¹
46 | C10U A12G G63U | < 1e-05 s⁻¹ |  |  | < 1e-05 s⁻¹
